Target: T1, IL-10R1 S138G homozygous mutant on primary B-CLL cells (human, UniProt Q13651 22-578)
T1 construct: Endogenous receptor on purified B-CLL cells of patients homozygous (GG) for the mutation; also called S159G of the IL-10R1 precursor; GG homozygous mutant
T1 sequence: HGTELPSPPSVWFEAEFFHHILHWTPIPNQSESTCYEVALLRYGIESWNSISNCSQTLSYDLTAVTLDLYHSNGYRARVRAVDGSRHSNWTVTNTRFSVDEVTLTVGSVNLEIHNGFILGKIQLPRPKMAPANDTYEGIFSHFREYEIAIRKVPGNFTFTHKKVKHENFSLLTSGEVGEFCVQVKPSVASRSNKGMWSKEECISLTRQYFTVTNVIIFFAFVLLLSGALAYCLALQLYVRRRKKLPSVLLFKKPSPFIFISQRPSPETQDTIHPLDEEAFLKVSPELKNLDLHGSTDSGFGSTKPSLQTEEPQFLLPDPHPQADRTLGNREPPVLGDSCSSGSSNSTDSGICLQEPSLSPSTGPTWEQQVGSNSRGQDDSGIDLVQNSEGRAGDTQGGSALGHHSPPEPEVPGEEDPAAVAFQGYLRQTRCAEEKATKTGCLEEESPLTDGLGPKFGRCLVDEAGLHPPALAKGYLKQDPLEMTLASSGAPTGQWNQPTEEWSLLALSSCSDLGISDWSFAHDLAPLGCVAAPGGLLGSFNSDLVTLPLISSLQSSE
Assay: flow cytometry, biotinylated IL-10 plus avidin-FITC on primary B-CLL cells; weaker than on wild-type cells
Procedure: IL-10 binding with B-CLL cells was determined using Flurokine® Biotinylated Human Interleukin 10 Kit (R&D Systems) per the protocol. 25 μl (1×10⁵) purified B-CLL cells were incubated with 10 μl biotinylated negative control reagents or biotinylated IL-10 for 1-hour at 2-8° C., then incubated with 10 μl of avidin-FITC for a further 30 minutes at 2-8° C. in the dark. Wash the cells twice with 2 ml of 1×RDF buffer 2 times. Add 200 μl 1×RDF buffer into each tube and do flow cytometry analysis.

B1: Biotinylated Human Interleukin 10 (Flurokine kit, R&D Systems) (ligand, UniProt P22301 19-178, looked up)
chain: SPGQGTQSENSCTHFPGNLPNMLRDLRDAFSRVKTFFQMKDQLDNLLLKESLLEDFKGYLGCQALSEMIQFYLEEVMPQAENQDPDIKAHVNSLGENLKTLRLRLRRCHRFLPCENKSKAVEQVKNAFNKLQEKGIYKAMSEFDIFINYIEAYMTMKIRN
modifications: biotinylated (sites not given) in the binding assay; unlabelled rh-IL-10 in the culture assays
notes: The STAT assays used rh-IL-10 (R&D Systems) at 10 ng/ml; also called IL-10; rh-IL-10
  binding result: binds
